Experimental findings from US20100021477A1 (Janssen / Centocor, published 2010) are described below.

The target in test [1] is T1, Hen-Egg White Lysozyme (HEL) (hen, UniProt P00698 19-147). Put plainly: BIAcore.
Test [2] deals with T2, Bovine Serum Albumin (BSA) (bovine, UniProt P02769 25-607). Kind of test: BIAcore, BSA on the chip (40 RU). In general terms: SPR reads the build-up and loss of mass on a sensor chip optically.
The target in test [3] is T2, Bovine Serum Albumin (BSA). Put plainly: BIAcore.
Test [4] has as its target T1, Hen-Egg White Lysozyme (HEL). Kind of test: BIAcore, lysozyme on the chip (10 RU), purified Fab.
For test [5] the target is unchanged. Kind of test: BIAcore, lysozyme on the chip (10 RU), purified Fab; apparent KD.
The target in test [6] is T2, Bovine Serum Albumin (BSA). Put plainly: BIAcore, BSA on the chip (40 RU), purified Fab; apparent KD.
The target of test [7] is T2, Bovine Serum Albumin (BSA). Put plainly: BIAcore, BSA on the chip (40 RU), purified Fab.

T1 sequence (P00698 19-147 limits assumed): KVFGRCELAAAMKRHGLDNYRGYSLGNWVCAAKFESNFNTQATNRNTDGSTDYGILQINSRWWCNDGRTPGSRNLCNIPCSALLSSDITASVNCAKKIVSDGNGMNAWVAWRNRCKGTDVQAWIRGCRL
T2 sequence (P02769 25-607 limits assumed): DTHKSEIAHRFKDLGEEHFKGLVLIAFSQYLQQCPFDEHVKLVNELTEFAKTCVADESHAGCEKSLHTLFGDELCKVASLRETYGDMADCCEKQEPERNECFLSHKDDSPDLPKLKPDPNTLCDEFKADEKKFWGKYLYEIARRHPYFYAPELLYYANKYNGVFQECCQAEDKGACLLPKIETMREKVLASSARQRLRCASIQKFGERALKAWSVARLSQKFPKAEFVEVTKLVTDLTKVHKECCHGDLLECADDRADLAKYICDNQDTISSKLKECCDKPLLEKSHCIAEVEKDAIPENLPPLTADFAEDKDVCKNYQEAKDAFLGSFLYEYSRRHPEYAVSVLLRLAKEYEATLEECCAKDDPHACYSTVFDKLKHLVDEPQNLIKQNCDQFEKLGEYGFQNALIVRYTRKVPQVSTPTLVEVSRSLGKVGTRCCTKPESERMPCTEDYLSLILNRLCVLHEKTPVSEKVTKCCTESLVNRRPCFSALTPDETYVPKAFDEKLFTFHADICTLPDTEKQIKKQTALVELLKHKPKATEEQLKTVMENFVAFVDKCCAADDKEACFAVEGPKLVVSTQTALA

B1: Fab C6 (Fab, V domains shown)
VH: QVQLVQSGAEVKKPGSSVKVSCKASGGTFSSYGISWVRQAPGQGLEWMGGIIPIFGTANYAQKFQGRVTITADESTSTAYMELSSLRSEDTAVYYCARLCVSPAWDQCFDYWGQGTLVTVSS
VL: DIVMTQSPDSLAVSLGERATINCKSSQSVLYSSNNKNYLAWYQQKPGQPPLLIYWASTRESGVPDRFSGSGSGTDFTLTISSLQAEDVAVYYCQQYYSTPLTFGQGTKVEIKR
notes: also called C6 (Hc/Lc)
Turning to B1, the binding result in test [1] and in test [2] was “no binding” each time.

B2: Fab D11 (Fab, V domains shown)
VH: QVQLVQSGAEVKKPGSSVKVSCKASGGTFSSYAISWVRQAPGQGLEWMGGIIPIFGTANYAQKFQGRVTITADESTSTAYMELSSLRSEDTAVYYCARIRWGGWFRGYLDYWGQGTLVTVSS
VL: not shown
notes: also called D11(Hc/Lc)
Consider B2, for which the binding result in test [1] is on record as “no binding”.

B3: Fab E5 (Fab, V domains shown)
VH: QVQLVQSGAEVKKPGSSVKVSCKASGGTFSSYAISWVRQAPGQGLEWMGWIIPYNGNANYAQKFQGRVTITADESTSTAYMELSSLRSEDTAVYYCARHTPVRDLDYWGQGTLVTVSS
VL: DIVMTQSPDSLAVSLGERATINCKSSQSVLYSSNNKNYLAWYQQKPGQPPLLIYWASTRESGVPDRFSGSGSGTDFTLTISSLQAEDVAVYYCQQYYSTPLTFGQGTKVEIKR
notes: also called E5 (Hc/Lc)
Turning to B3, in test [3], the binding result is listed as “no binding”. In addition, in test [4], the koff (as a rule, the rate constant with which the complex falls apart) was found to be 0.00233 s⁻¹ and the kon (as a rule, a measure of how fast the partners come together) came out at 227000 M⁻¹ s⁻¹. Moreover, in test [5], the Kd is 10 nM.

B4: Fab C2 (Fab, V domains shown)
VH: QVQLVQSGAEVKKPGSSVKVSCKASGGTFSSYAISWVRQAPGQGLEWMGGIIPINGNANYAQKFQGRVTITADESTSTAYMELSSLRSEDTAVYYCARRAGMRVQTYYFFDYWGQGTLVTVSS
VL: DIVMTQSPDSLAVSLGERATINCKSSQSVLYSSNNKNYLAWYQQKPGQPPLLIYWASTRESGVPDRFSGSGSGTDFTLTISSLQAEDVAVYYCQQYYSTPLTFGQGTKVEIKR
notes: also called C2 (Hc/Lc)
Take B4: in test [1], the binding result is “no binding”. The Kd in test [6] was 28 nM. In test [7], this molecule displayed a koff of 0.00169 s⁻¹ and a kon of 60000 M⁻¹ s⁻¹.

B5: Fab E7 (Fab, V domains shown)
VH: QVQLVQSGAEVKKPGSSVKVSCKASGGTFSSYAISWVRQAPGQGLEWMGGIIPIFGTANYAQKFQGRVTITADESTSTAYMELSSLRSEDTAVYYCAREGGEVYDWEYYLDYWGQGTLVTVSS
VL: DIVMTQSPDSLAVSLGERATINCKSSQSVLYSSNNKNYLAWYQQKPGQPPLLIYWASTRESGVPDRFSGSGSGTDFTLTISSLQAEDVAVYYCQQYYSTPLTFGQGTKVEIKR
notes: also called E7 (Hc/Lc)
With B5, the binding result in test [3] is listed as “no binding”. In test [4], this molecule had a koff of 0.12 s⁻¹ and a kon of 460000 M⁻¹ s⁻¹. Also, in test [5], the Kd came out at 260 nM.

B6: Fab D6 (Fab, V domains shown)
VH: QVQLVQSGAEVKKPGSSVKVSCKASGGTFSSYAISWVRQAPGQGLEWMGGIIPIFGTANYAQKFQGRVTITADESTSTAYMELSSLRSEDTAVYYCARGIIGINLVVLDYWGQGTLVTVSS
VL: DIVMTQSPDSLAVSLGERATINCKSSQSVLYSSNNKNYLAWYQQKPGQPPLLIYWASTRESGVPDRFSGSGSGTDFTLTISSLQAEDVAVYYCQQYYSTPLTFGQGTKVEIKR
notes: also called D6 (Hc/Lc)
On to B6, for which, in test [1], the binding result is reported as “no binding”. For the same molecule, the Kd in test [6] is 4 nM. For the same molecule, in test [7], the koff is 0.00195 s⁻¹ and the on-rate (kon) is 572000 M⁻¹ s⁻¹.

B7: Fab F6 (Fab, V domains shown)
VH: QVQLVQSGAEVKKPGSSVKVSCKASGGTFSSYAISWVRQAPGQGLEWMGGIIPIFGTANYAQKFQGRVTITADESTSTAYMELSSLRSEDTAVYYCARGIIGTITYVFDYWGQGTLVTVSS
VL: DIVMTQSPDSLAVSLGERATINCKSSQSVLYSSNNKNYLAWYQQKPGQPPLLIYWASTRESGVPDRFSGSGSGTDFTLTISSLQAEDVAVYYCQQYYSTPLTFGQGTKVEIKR
notes: also called F6 (Hc/Lc)
With B7, the binding result in test [1] was “no binding”. Also, the Kd in test [6] worked out at 26 nM. Further, in test [7], the koff came to 0.0113 s⁻¹ and the kon was found to be 430000 M⁻¹ s⁻¹.

B8: Fab F4 (Fab, V domains shown)
VH: QVQLVQSGAEVKKPGSSVKVSCKASGGTFSSYGISWVRQAPGQGLEWMGGIIPIFGTANYAQKFQGRVTITADESTSTAYMELSSLRSEDTAVYYCARDFGVYTWLGQTFDYWGQGTLVTVSS
VL: not shown
notes: also called F4 (Hc/Lc)
With B8, the binding result in test [1] is on record as “no binding”. Further, the Kd in test [6] came out at 9 nM. Further, in test [7], the koff turned out to be 0.00048 s⁻¹ and the kon is 51000 M⁻¹ s⁻¹.
